Experiment: label from the status in PepcDB records

| Sequence | protein production |
| --- | --- |
| GSHMEKVPGEMEIERRERSEELSEAERKAVQAMWARLYANCEDVGVAILVRFFVNFPSAKQYFSQFKHMEDPLEMERSPQLRKHACRVMGALNTVVENLHDPDKVSSVLALVGKAHALKHKVEPVYFKILSGVILEVVAEEFASDFPPETQRAWAKLRGLIYSHVTAAYKEVGWVQQVPNATTPPATLPSSGP | not failed |
| MKVVVQIKDFDKVPQALRSVINLYNDIKDAEIEVVLHQSAIKALLKDSDTRSIIEDLIKKNILIVGCENSIRSQNLSHDQLIPGIKIVTSGVGEIVRKQSEGWIYLAL | not failed |
| MIGFLILLFIFVAGFFIMQMLIYRFAKKNIHKYTKIKWFHMWLHMNMKKGPRLDFFDFVVTVLVCIVWKIWLLPFI | failed |
| MRYLSKDILEEVITQRPSDSYKSNFGRVVLIGGNRQYGGAIIMSTEACINSGAGLTTVITDVKNHGPLHARCPEAMVVGFEETVLLTNVVEQADVILIGPGLGLDATAQQILKMVLAQHQKQQWLIIDGSAITLFSQGNFSLTYPEKVVFTPHQMEWQRLSHLPIEQQTLANNQRQQAKLGSTIVLKSHRTTIFHAGEPFQNTGGNPGMATGGTGDTLAGIIAGFLAQFKPTIETIAGAVYLHSLIGDDLAKTDYVVLPTKISQALPTYMKKYAQPHTAPDSELLEQKRSR | not failed |
| MTAVGADAPKPGAPIKEPRFGFLRRTYAMLVKELIQLKRDRLTFAMIIVIPVMQLLLFGYAINTTPRHLPTAVLLQEDSDLGRSILKALENTAYFKFTREVHSVAEFDDLLLSGRVLFGVEIPRGFERAVRRGEKPAILVAADATDPVAAGSALSALGQIVQTALMHDRVGGDPANPPFEIRAHARYNPAASSRLNIVPGLVGTILTMTMLIFTALSVTREIERGTMENLLSMPITPVEVMLGKILPYVGVGFIQASLILGIGVLLFGVPLRGSLAMLALLSTLFITTNLAIGYTFSTLVQNQLQAMQASMMFFLPSILLSGFMFPFAGMPIWAQYIGECLPLTHYLRIVRAIMLKGSTLENLQYDAVALLTLMLIAMTIAVTRFRRTLD | failed |
| MATATATSERFELAKHCSSRNWSKAIRVLDSLLAKESSILDICNRAFCYNQLELHKHVIKDCDKALLLEPFAIQAFILKGRALLALGRKQEAVLVLEQGYKSALQQTADVKQLLELEELLKDARREIDGILKSHATESPQETPAYHSEKSDEKSDKLDNHESGASSNGNSHESSSELGEQSKIVSFSKVASKASKQSDGNSDLCNGSVYKEKENGKCGSQINGYYESCKPCNGSDLHDNLAESSDRFGELSINGNKISIKSSKMSHKAEARCGISDESRKNKKYTIARISGTHSISVDFRLSRGIAQVNEGNYTKAISIFDKVLKEEPTYPEALIGRGTAYAFQRELESAIADFTKAIQSNPAASEAWKRRGQARAALGEYVEAVEDLTKALVFEPNSPDVLHERGIVNFKSKDFTAAVKDLSICLKQEKDNKSAYTYLGLAFASLGEYKKAEEAHLKSIQLDSNYLEAWLHLAQFYQELADHCKALECIEQVLQVDNRVWKAYHLRGLVFHGLGEHRKAIQELSIGLSIENTIECLYLRGSCYHAVGEYRDAVKDYDATVDVELDAVEKFVLQCLAFYQKELALYTASKVSSEFLCFDIDGDIDPMFKEYWCKRLHPKNVCEKVYRQPPLRESLKKGKLKKQDLAITKQKANILRFADLIGKRIQYDCPGFLPNKRQHRMAGLAVIEIAQKVSKAWRIEWRNSTKGTTKNGKKNRRRERTNILSQNRGGAGCSSSSFSETSTGYASLEDRSSGRSILSWQDVYSPAVRWRQISEPCDPVVWVNKLSEEFNSGFGSHTPMVLGQAKVVRYFPNYERTLTLAKSIIKDKLSVRSKKDKVIDLSKDEKIEKIMRAETCDELHNIVGEDFWVATWCDSTGSEGWVC | failed |
| MVRGDAVIVQAALQDGHWSGRADVLRRVEIPSGLGAWSSVVEDKKQALDLVDRVLSKNPASASAHRTKGAILLFGHPEEAMAEYDAALEIDPNNPAVYAAKTITLIVTGRAREAFSPLQLAHCYVCFGHCARVAEARCSIRTQGAGLRRVALLARSRT | failed |
| MKVKKWVTQDFPMVEESATVRECLHRMRQYQTNECIVKDREGHFRGVVNKEDLLDLDLDSSVFNKVSLPDFFVHEEDNITHALLLFLEHQEPYLPVVDEEMRLKGAVSLHDFLEALIEALAMDVPGIRFSVLLEDKPGELRKVVDALALSNINILSVITTRSGDGKREVLIKVDAVDEGTLIKLFESLGIKIESIEKEEGF | not failed |
| MGAVSAFSWASSGRLHALEVFVMKIPKTYDEIMEHFGGLIDEVTAELLESYAKGETVRVSEALAKSGRVAVEGVVLRVFPVRHFSKNGRSGKVGSVVIQDDCTVRVNFWNEAAEIIEAGDIVEGARIKVRGYARGEEIHVNSLSEVEVFVDFVNISELDEKVGERVNVKGFVSGLGEPEKANEIYISDETGRVKVLLENESLYYAVDIGSYVEIYNALAGEDGIYVDRNSRFSVGELEHHHHHH | failed |
| MQKKNFWQIYFGKDPFSKAEFIKAWIGWWVIAIVLLGVLSICTSLNLRGIGIALGFGFCQIHARYLTFVGWNKFIGVLGVFPVTNIILFIVLLFTKKK | failed |
| MFKKEIILGILCLFAACHSNDEIIEEQESPKNEQQEPKARVDIILSHEEQAMSESTNDFAFQLFKQVCVSENRKTNIFISPFSVSLCLSMSANGANGNTLTEIKKVLGFSSSSMDEVNTYNQKLMSSLLNIDNTTQIGIANSVWINQGFVVKNTFIDINKLKYNAWVESLDFSSASAIATINAWCARNTENRLVDIMDEISPEARLILINALYFKGKWTNPFSKEVTKNDFFTNIDGEQVKVDMMCQEESFRCMNNEKFAIAEFPYGNEAFSMVVVLPVENSSLEESLLWLSNDAWKQCETQMSYQKLQVKMPKFSFKYQKPLNSDMSVLGMKDAFILGLADFRNISASENLYLSSLEQFTYLEVNEEGTESAAITTEVPATSTGDDKDIIHFFMDRPFIFMIKEKSTGLILFMGQVTKL | failed |
| MAAITEFLPKEYGYVVLVLVFYCFLNLWMGAQVGRARKRYNVPYPTLYAIESENKDAKLFNCVQRGHQNSLEMMPMYFILMILGGMKHPCICTGLGLLYNVSRFFYFKGYATGDPMKRLTIGKYGFLGLLGLMICTISFGVTLILA | failed |
| MVLYFIGLGLYDERDITVKGLEIAKKCDYVFAEFYTSLMAGTTLGRIQKLIGKEIRVLSREDVELNFENIVLPLAKENDVAFLTPGDPLVATTHAELRIRAKRAGVESYVIHAPSIYSAVGITGMHIYKFGKSATVAYPEGNWFPTSYYDVIKENAERGLHTLLFLDIKAEKRMYMTANEAMELLLKVEDMKKGGVFTDDTLVVVLARAGSLNPTIRAGYVKDLIREDFGDPPHILIVPGKLHIVEAEYLVEIAGAPREILRVNV | not failed |
| MDERPEGGDAQGAREGRDARGDGEPDEVVSGELLPYDDIAGVAAASVGLHALADDLAGERRELAVELRKFFVVLRLSVRRYAALRPYSPSSVSRYLSGDLVAPDHFVATLMDDVGRELGRPLSAQARGRVTGLQRAALRSSNSRAWKVQELEDRLAAAHQDAQVARTQADAVATLLHAERQRVAGVEEERQELARTLEAHQATSGAELDVLRAQQHRVRAERDTLRRRVADLEAALAAAEHRVAEAEQRCADLEHELLTADAAAAAEESAAAEQERARQQAELGSLRDEVARLRVAAERVPETSPARGTQAPRTSVHGAEADATGPVSGDRSAAAPADVPGAASSVTIVYAGFNRAWAAWIGDRLERWGVRAVLMLWDVPADIPLIDLLRDLKLAEGRILIVVSEWYFQLGLRSHDEWNEALREVVAPDPSRFVAVSVTNAPVPSAAAVLAAVDLTDTGADEAERRLLARLVGLPGDSLPAASGGERRGPRFPAATPEVWGGVPRRNTRFTGRESLLSDAYSLLKGAEPGAGVLTLHGMSGVGKTQLAVEYVYRFSSEYDVVWWVGADNRGVFRQTLAELASRLGLSTGAEYGERLRAVRDSLRRGDPYARWLLILDGADDPDQIEDLVPTGPGHVLITSRNLKWGEHNSELLEVPVYDRPESVAFIRRRAPRLAEADADRLAEALEDLPLLLDQTAGWLNDSDLSVGEYIALLDGGIDQDVVKVSADFPIAFRTAWSILLNKVRETVPEAVDLLRLCTFFAPGLIPVRFLREMPHNELPETITGLLNDRLLWNKAIHQLRQYSVVRLESHEAATDGSTSSGESLYLHRMVHQIVRNDMPEDERHEFAAVVRRALASADPGRPTDTRHWGEYAEIVPHLKYADVLDSPDPGVQRLVLNCLGYLHLSGRYAAGVELAERALEAWRELLGDTHPVIWELTAHHTNLLRSTGDYRRTEAVDRAAVEHLREERGELDPDHLRAAAGLAADLRGLGRYGEALELTRRLLTSCLDLLGEQDSRTLDAQHDLGFSLRLLGRYEEALDVDRRTLEARRALLSGRHPGILLSETSCATDLRLLGHYAEAESAQATNARAQRAVMGSDNPQTLRAEHNLALCQYRAGDREKAGKLFSRVLERYERTLGETDPLTLAAAVSQSCFAREYGDIDQAGAASESLIARYEAMLTDGHPFTIGARANHVLLLRQVGARDEARFGAEKALTAMAAAMGESHPWTLGCAINAAAVRQFIGDVESAAELSGSTVARATDALGRTHPLTLSARVAQAADLRGLREHRRAEEIEQEVLADLAATLGSRHVHTVSARSRNRPYWDFEPQPT | failed |
| MKTTRTCKINSITKEQTEALITLIRTFESAKRYSFNRLIEGESEKELIKKLQLKYLLNKRFCEDAVLQVQTILSSQKELLPVYLENNQKKLEKTLQKKMIMKVAGKTQKKFH | failed |
| MSQDVSAQLQFRRSTMHWLRVARTAALALLLAPAVAPARAWLPPPGHVQMPLWPTVVPDALPHPRPESVGTGEGKRPWTKVGDVSRPTITFYAPKGQNTGAAAVVFPGGGYQVLAMDLEGTDICDWLSGRGITCVLLKYRVPNSGPTWTNGGRYYPKVQTALQDAQRALGLVRQHADDWGVDPHRVGVIGFSAGGHLVAAMSTHFTRRTYPSVDAADAQSCRPDFAIAVYPGHLWAHEDEDRAKRDPTHLPLRPDITVTADTPPTFLLQAEDDEVDGVSQSLAYYVALKQAGVPAEMHLYAEGGHAFGLRAGKLPIAQWPHLVETWLGTIGMLGTASAP | failed |
| ECTIKNNIENILRNSYINVGYEEVRSPTLEFYDVYNLENQPISQEKMYKLFDNTGRILVLRPDMTTPIARICATKLKNRVYPLKLSYTGNIYRMNKALNGKISEITQSGIEILGFSSLKADAEVIITAIKAILKTGLKNFKIEIGQVEFFKSIISDTALKEQDTEKLRNFIENKNFSKVEEFILRNSDLIGETSSKVLMNLPNLFGGKEVIEKAEQLTSNKQAIEALKKVRDLYDIVKRAGFGEYILIDLGMVQHINYYTGLIFRGYAHGIGDDLLSGGRYDKLLGQFGYDIPATGLAINVDNLVA | failed |
| MGRMSEKLGQDIKQSIFKVPPLIQKSDIDPEHCRVSAQLDDNVDDNIPLRVMLLLMDEVFDLKDRNQWLRRNIKNLLQQLIKATYGDTINRKIVDHVDNMTSPEQVSDYVKRFRDSYWPNGILAETPPRRDKNLRMRTRVAAKTTLLGIMPDELKHIIGADTTRKGILRVFEMFQHQPLNRRLVYVFLEGFLETLFPQYKFPELFEKLHSRSPRVLKYSHKLRSLQKR | failed |
| MEEELPLFSGDSGKPVQATLSSLKMLDVGKWPIFSLCSEEELQLIRQACVFGSAGNEVLYTTVNDEIFVLGTNCCGCLGLGDVQSTIEPRRLDSLNGKKIACLSYGSGPHIVLATTEGEVFTWGHNAYSQLGNGTTNHGLVPCHISTNLSNKQVIEVACGSYHSLVLTSDGEVFAWGYNNSGQVGSGSTVNQPIPRRVTGCLQNKVVVTIACGQMCCMAVVDTGEVYVWGYNGNGQLGLGNSGNQPTPCRVAALQGIRVQRVACGYAHTLVLTDEGQVYAWGANSYGQLGTGNKSNQSYPTPVTVEKDRIIEIAACHSTHTSAAKTQGGHVYMWGQCRGQSVILPHLTHFSCTDDVFACFATPAVTWRLLSVEPDDHLTVAESLKREFDNPDTADLKFLVDGKYIYAHKVLLKIRCEHFRSSLEDNEDDIVEMSEFSYPVYRAFLEYLYTDSISLSPEEAVGLLDLATFYRENRLKKLCQQTIKQGICEENAIALLSAAVKYDAQDLEEFCFRFCINHLTVVTQTSGFAEMDHDLLKNFISKASRVGAFKN | failed |
